± gives the uncertainty stated by the source.
B1: Lysine-specific demethylase 2B, residues 656 to 722; numbered along this chain, Q8NHM5 (parent)
chain: LPHTAVCLVCGEAGKEDTVEEEEGKFNLMLMECSICNEIIHPGCLKIKESEGVVNDELPNCWECPKC

Variants of: B1
Assay: abundance fitness (aPCA) (normalised: wild type 0, dead -1); higher = more abundant; growth selection in yeast, the domain comes from the species named
Conditions: Homo sapiens

Abundance fitness, by site and new letter:
E38: K -0.206 ± 0.33 | Q -0.098 ± 0.12 | H -0.566 ± 0.44 | T -0.57 ± 0.2 | V -0.13 ± 0.073 | D -0.294 ± 0.35 | S -0.06 ± 0.093 | I -0.085 ± 0.13 | C -0.291 ± 0.14 | R 0.104 ± 0.07 | N -0.402 ± 0.16 | P -0.723 ± 0.29 | M 0.066 ± 0.072 | W -0.163 ± 0.11 | A -0.356 ± 0.093 | F -0.69 ± 0.29 | G -0.286 ± 0.063
M29: A -0.297 ± 0.14 | V -0.318 ± 0.093 | L -0.274 ± 0.1 | E -0.362 ± 0.12 | P -0.267 ± 0.12 | R 0.278 ± 0.079 | S 0.039 ± 0.077 | D -0.552 ± 0.26 | H -0.31 ± 0.27 | C -0.026 ± 0.14 | G -0.247 ± 0.082 | I -0.652 ± 0.36 | Q -0.15 ± 0.24 | W -0.522 ± 0.17
F26: M 0.062 ± 0.1 | P -0.165 ± 0.14 | L -0.297 ± 0.097 | K -0.257 ± 0.14 | A -0.204 ± 0.084 | T -0.155 ± 0.14 | H -0.343 ± 0.2 | E -0.176 ± 0.1 | Y -0.234 ± 0.15 | D -0.4 ± 0.21 | G -0.278 ± 0.067 | V -0.164 ± 0.072 | I 0.028 ± 0.13 | R -0.018 ± 0.097 | S -0.343 ± 0.12 | Q -0.37 ± 0.14 | N 0.053 ± 0.13
L28: G -0.076 ± 0.068 | C -0.16 ± 0.18 | S 0.068 ± 0.087 | A 0.124 ± 0.08 | P -0.162 ± 0.16 | D -0.068 ± 0.17 | K 0.152 ± 0.14 | R -0.148 ± 0.072 | T 0.241 ± 0.11 | N 0.476 ± 0.18 | W 0.039 ± 0.073 | F 0.081 ± 0.1 | H 0.118 ± 0.12 | M 0.364 ± 0.098 | Y -0.169 ± 0.49
M31: V -0.276 ± 0.12 | S -0.446 ± 0.14 | A -0.18 ± 0.093 | L -0.053 ± 0.1 | F -0.272 ± 0.16 | Q -0.662 ± 0.28 | G -0.485 ± 0.16 | T -0.405 ± 0.16 | C -0.219 ± 0.22 | P -0.847 ± 0.15 | K -0.093 ± 0.098 | Y -0.317 ± 0.18 | H -0.25 ± 0.12 | W -0.229 ± 0.089 | I -0.238 ± 0.11 | R -0.141 ± 0.085
C33: V -1.24 ± 0.22 | P -0.729 ± 0.19 | L -0.765 ± 0.15 | G -0.629 ± 0.1 | A -0.912 ± 0.2 | Q -0.581 ± 0.21 | R -0.593 ± 0.12 | W -1.02 ± 0.27 | S -0.716 ± 0.22 | K -0.6 ± 0.17 | N -0.481 ± 0.29 | T -0.753 ± 0.19 | D -0.852 ± 0.24 | Y -0.621 ± 0.44 | M -0.642 ± 0.14 | E -0.619 ± 0.14
E23: N -0.05 ± 0.18 | F -0.058 ± 0.26 | R -0.058 ± 0.076 | W -0.554 ± 0.15 | Y -0.36 ± 0.33 | T -0.028 ± 0.12 | M -0.088 ± 0.095 | S 0.185 ± 0.11 | Q -0.21 ± 0.33 | L -0.354 ± 0.11 | G 0.13 ± 0.063 | K 0.157 ± 0.14 | V 0.035 ± 0.097 | P -0.342 ± 0.22
C36: F -1.21 ± 0.43 | N -0.707 ± 0.24 | L -0.643 ± 0.18 | V -0.921 ± 0.13 | S -0.994 ± 0.22 | D -0.549 ± 0.26 | M -0.619 ± 0.21 | A -0.78 ± 0.16 | T -0.961 ± 0.26 | I -0.477 ± 0.25 | G -0.794 ± 0.09 | H -1.18 ± 0.43 | W -1.38 ± 0.23 | E -0.736 ± 0.14 | R -0.72 ± 0.091
I35: N -0.295 ± 0.23 | D -0.323 ± 0.2 | Y -0.548 ± 0.28 | R -0.022 ± 0.08 | L 0.016 ± 0.094 | P -1.07 ± 0.3 | C -0.119 ± 0.21 | K -0.057 ± 0.12 | V 0.037 ± 0.096 | E -0.399 ± 0.22 | G -0.14 ± 0.11 | S -0.364 ± 0.19 | T 0.147 ± 0.15 | Q -0.149 ± 0.091 | M 0.023 ± 0.13 | W -0.643 ± 0.12
N37: Y 0.137 ± 0.12 | K 0.095 ± 0.2 | E 0.02 ± 0.1 | C 0.34 ± 0.33 | W -0.267 ± 0.1 | M -0.062 ± 0.097 | R 0.111 ± 0.066 | V -1.3 ± 0.25 | G 0.092 ± 0.059 | F -0.233 ± 0.2 | A 0.094 ± 0.085 | Q 0.183 ± 0.1 | D -0.026 ± 0.16 | H 0.081 ± 0.12 | S 0.057 ± 0.096 | T -0.369 ± 0.24
S34: V -0.078 ± 0.096 | T 0.082 ± 0.2 | P -0.456 ± 0.16 | L -0.36 ± 0.14 | G -0.106 ± 0.082 | H -0.03 ± 0.23 | I -0.058 ± 0.1 | A -0.273 ± 0.13 | E -0.469 ± 0.21 | K -0.021 ± 0.11 | D -0.153 ± 0.18 | R -0.229 ± 0.092 | Q 0.027 ± 0.12 | W -0.545 ± 0.15 | C -0.053 ± 0.18
G43: R -0.173 ± 0.065 | L -0.536 ± 0.088 | Q -0.383 ± 0.13 | K -0.219 ± 0.13 | T -0.375 ± 0.11 | Y -0.02 ± 0.2 | D -0.064 ± 0.2 | F -0.558 ± 0.16 | N -0.195 ± 0.22 | C -0.395 ± 0.12 | H -0.433 ± 0.32 | M 0.113 ± 0.099 | A 0.085 ± 0.1 | S -0.364 ± 0.18 | V -0.302 ± 0.12 | W -0.52 ± 0.12 | P -0.526 ± 0.15
I40: F -0.579 ± 0.31 | H 0.1 ± 0.2 | G -0.229 ± 0.067 | L -0.154 ± 0.072 | Q -0.192 ± 0.056 | W -0.473 ± 0.11 | E -0.599 ± 0.086 | S 0.096 ± 0.074 | A 0.008 ± 0.064 | C -0.06 ± 0.16 | P -0.72 ± 0.12 | V 0.215 ± 0.074 | K -0.368 ± 0.12 | R -0.2 ± 0.07 | T 0.126 ± 0.079 | N 0.171 ± 0.15 | Y -0.257 ± 0.25
K25: T -0.432 ± 0.17 | N -0.118 ± 0.18 | Y -0.677 ± 0.2 | M -0.238 ± 0.087 | R -0.324 ± 0.088 | F -0.602 ± 0.14 | V -0.525 ± 0.1 | I -0.453 ± 0.11 | W -0.859 ± 0.31 | A -0.242 ± 0.11 | S -0.348 ± 0.14 | L -0.441 ± 0.083 | C -0.329 ± 0.21 | G -0.33 ± 0.099 | H -0.31 ± 0.17 | P -0.787 ± 0.2
I39: W -0.157 ± 0.095 | H 0.245 ± 0.16 | N 0.056 ± 0.15 | V 0.013 ± 0.074 | S -0.129 ± 0.086 | C -0.216 ± 0.23 | G -0.141 ± 0.067 | M 0.119 ± 0.11 | P -0.055 ± 0.13 | L -0.125 ± 0.073 | Q 0.257 ± 0.089 | A -0.029 ± 0.068 | T -0.053 ± 0.13 | K -0.021 ± 0.12 | R 0.138 ± 0.065 | E -0.256 ± 0.085 | Y 0.076 ± 0.11
L30: N -0.152 ± 0.16 | G -0.209 ± 0.089 | A -0.35 ± 0.12 | M -0.373 ± 0.14 | K -0.034 ± 0.23 | F -0.778 ± 0.27 | W -0.309 ± 0.093 | C -0.232 ± 0.12 | Q -0.337 ± 0.23 | S -0.452 ± 0.078 | H -0.603 ± 0.24 | T -0.212 ± 0.098 | R -0.196 ± 0.062 | P -0.435 ± 0.14
N27: M 0.077 ± 0.13 | T -0.169 ± 0.12 | Y -0.179 ± 0.19 | L -0.137 ± 0.077 | K 0.064 ± 0.083 | F -0.22 ± 0.19 | C -0.706 ± 0.36 | D -0.058 ± 0.27 | Q -0.206 ± 0.13 | S -0.085 ± 0.076 | G -0.113 ± 0.058 | V -0.472 ± 0.12 | P -0.038 ± 0.1 | I -0.275 ± 0.44 | R -0.036 ± 0.064 | E -0.044 ± 0.12 | A 0.091 ± 0.078
H41: R -0.943 ± 0.12 | L -0.925 ± 0.14 | K -0.278 ± 0.16 | G -0.903 ± 0.12 | S -1.03 ± 0.27 | V -1.21 ± 0.44 | T -0.784 ± 0.16 | W -0.913 ± 0.14 | C -0.767 ± 0.25 | A -0.931 ± 0.22 | E -0.997 ± 0.18 | Q -0.952 ± 0.21 | Y -0.912 ± 0.33
P42: K -0.285 ± 0.15 | W -0.32 ± 0.1 | E -0.537 ± 0.093 | Y 0.122 ± 0.27 | F -0.272 ± 0.19 | V -0.423 ± 0.13 | R -0.134 ± 0.063 | A -0.34 ± 0.09 | M -0.52 ± 0.22 | C -0.355 ± 0.21 | T -0.568 ± 0.18 | L -0.317 ± 0.079 | H 0.019 ± 0.18 | G -0.302 ± 0.076 | Q -0.189 ± 0.23 | D -0.644 ± 0.22
G24: A 0.011 ± 0.078 | W -0.526 ± 0.082 | P -0.481 ± 0.28 | N 0.123 ± 0.094 | T 0.019 ± 0.099 | H 0.346 ± 0.14 | K -0.051 ± 0.11 | C -0.415 ± 0.11 | Q -0.123 ± 0.1 | M 0.375 ± 0.1 | F 0.006 ± 0.055 | E 0.013 ± 0.07 | V -0.021 ± 0.071 | S 0.15 ± 0.082 | Y 0.154 ± 0.15 | R -0.121 ± 0.068 | I -0.049 ± 0.13 | L 0.045 ± 0.071
E32: S 0.044 ± 0.088 | M 0.142 ± 0.1 | T 0.02 ± 0.12 | R 0.201 ± 0.06 | A -0.222 ± 0.092 | V -0.287 ± 0.098 | K 0.156 ± 0.11 | Q -0.17 ± 0.15 | W -0.247 ± 0.09 | L 0.005 ± 0.065 | H 0.103 ± 0.12 | I -0.072 ± 0.19 | G -0.063 ± 0.077 | Y -0.668 ± 0.22 | F -0.205 ± 0.12 | C 0.088 ± 0.099 | D -0.324 ± 0.15 | P -0.53 ± 0.22
